The source of these data is CN112375147A (THE THIRD AFFILIATED HOSPITAL NAVAL MEDICAL UNIV OF PLA, dated 2021).

This experiment deals with T1, YKL-40 (native, secreted); in serum of patients with hepatocellular carcinoma lung metastasis and in culture … (human, UniProt P36222 22-383).
T1 construct: mature; Endogenous secreted protein, not a recombinant construct; also called Chi3l1; BRP39
In words: ELISA of YKL-40 left detectable in patient serum (1:100) after overnight incubation at 4 C with 10 ug/mL antibody, IgG control.

T1 sequence (P36222 22-383): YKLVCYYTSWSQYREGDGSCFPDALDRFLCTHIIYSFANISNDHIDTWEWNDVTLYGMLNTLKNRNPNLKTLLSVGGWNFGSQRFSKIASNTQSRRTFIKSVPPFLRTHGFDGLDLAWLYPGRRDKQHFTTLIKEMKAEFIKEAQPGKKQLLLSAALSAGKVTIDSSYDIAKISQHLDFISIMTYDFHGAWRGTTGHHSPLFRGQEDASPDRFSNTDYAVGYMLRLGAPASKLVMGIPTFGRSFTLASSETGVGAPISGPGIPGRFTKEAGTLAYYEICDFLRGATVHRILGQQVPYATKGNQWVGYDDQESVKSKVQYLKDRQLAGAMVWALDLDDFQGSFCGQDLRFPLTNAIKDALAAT

B1: 抗人YKL-40中和性单克隆抗体 (antibody, V domains shown)
VH: EVKLEESGGGLVQPGGSMKLSCAASGFTLSDAWMDWVRQSPEKGLEWVAEIRSKGNNHTPYYAESVKGRFTISRDDSRNSVYLQMNTLRAEDTGTYYCTRTVYYYGSSSCAMDYWGQGTSVTVSS
VL: DIQMTQSPASLSASVGETVTITCGASENIYGALNWYQRKQGKSPQLLIFGASNLADDMSSRFSGSGSGRQYSLKISSLHPDDVATYFCQNVLRTPWTFGGGTNLEIK
notes: Monoclonal antibody from mouse immunisation (hybridoma Hyb-NAY); also called N-AY; YKL-40中和性单抗
Consider B1, for which the binding result is “binds”.
